Test results reported in the supplement of paper PMC11316812.
± gives the standard deviation of the averaged measurements.

Key:
MCF7 = assay: percentage of EdU-negative (G0-arrested) nuclei per well, 72 h; higher = more G0 arrest; conditions: reference: sequence is the full UniProt precursor, the tested protein was the secreted form or ectodomain
hTERT-HMEC = assay: as above; conditions: reference: sequence is the full UniProt precursor, the tested protein was the secreted form or ectodomain
[1] = protein concentration 0.0125714 µM
[2] = protein concentration 0.125714 µM
[3] = protein concentration 0.0225 µM
[4] = protein concentration 0.019635 µM
[5] = protein concentration 0.19635 µM
[6] = protein concentration 0.03125 µM
[7] = protein concentration 0.3125 µM
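Further: secreted proteins added to cultured cells, EdU pulse at the end, nuclei found by Hoechst imaging, EdU status from nuclear versus surrounding ring intensity ratio, PBS as neutral control.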

Question: With “MRENMARGPCNAPRWASLMVLVAIGTAVTAAVNPGVVVRISQKGLDYASQQGTAALQKELKRIKIPDYSDSFKIKHLGKGHYSFYSMDIREFQLPSSQISMVPNVGLKFSISNANIKISGKWKAQKRFLKMSGNFDLSIEGMSISADLKLGSNPTSGKPTITCSSCSSHINSVHVHISKSKVGWLIQLFHKKIESALRNKMNSQVCEKVTNSVSSELQPYFQTLPVMTKIDSVAGINYGLVAPPATTAETLDVQMKGEFYSENHHNPPPFAPPVMEFPAAHDRMVYLGLSDYFFNTAGLVYQEAGVLKMTLRDDMIPKESKFRLTTKFFGTFLPEVAKKFPNMKIQIHVSASTPPHLSVQPTGLTFYPAVDVQAFAVLPNSSLASLFLIGMHTTGSMEVSAESNRLVGELKLDRLLLELKHSNIGPFPVELLQDIMNYIVPILVLPRVNEKLQKGFPLPTPARVQLYNVVLQPHQNFLLFGADVVYK” as the sequence, how does the “percentage of EdU-negative” value (MCF7; [1]) read?
Answer: 24.5 ± 2.8%

Question: What about the “percentage of EdU-negative” value (MCF7; [2]) of the same sequence?
Answer: 29.1 ± 5%

Question: What about the “percentage of EdU-negative” value (hTERT-HMEC; [1]) of the same sequence?
Answer: 6.02 ± 1.5%

Question: What about the “percentage of EdU-negative” value (hTERT-HMEC; [2]) of the same sequence?
Answer: 35.1 ± 4%

Question: How did the “percentage of EdU-negative” value (MCF7; [3]) turn out when “MMLRVLVGAVLPAMLLAAPPPINKLALFPDKSAWCEAKNITQIVGHSGCEAKSIQNRACLGQCFSYSVPNTFPQSTESLVHCDSCMPAQSMWEIVTLECPGHEEVPRVDKLVEKILHCSCQACGKEPSHEGLSVYVQGEDGPGSQPGTHPHPHPHPHPGGQTPEPEDPPGAPHTEEEGAED” was run?
Answer: 25.6 ± 1.4%

Question: And the “percentage of EdU-negative” value (MCF7; protein concentration 0.225 µM)?
Answer: 24.7 ± 0.79%

Question: And the “percentage of EdU-negative” value (hTERT-HMEC; [3])?
Answer: 5.79 ± 0.84%

Question: And the “percentage of EdU-negative” value (hTERT-HMEC; protein concentration 0.225 µM)?
Answer: 5.88 ± 0.42%

Question: “MAFDVSCFFWVVLFSAGCKVITSWDQMCIEKEANKTYNCENLGLSEIPDTLPNTTEFLEFSFNFLPTIHNRTFSRLMNLTFLDLTRCQINWIHEDTFQSHHQLSTLVLTGNPLIFMAETSLNGPKSLKHLFLIQTGISNLEFIPVHNLENLESLYLGSNHISSIKFPKDFPARNLKVLDFQNNAIHYISREDMRSLEQAINLSLNFNGNNVKGIELGAFDSTIFQSLNFGGTPNLSVIFNGLQNSTTQSLWLGTFEDIDDEDISSAMLKGLCEMSVESLNLQEHRFSDISSTTFQCFTQLQELDLTATHLKGLPSGMKGLNLLKKLVLSVNHFDQLCQISAANFPSLTHLYIRGNVKKLHLGVGCLEKLGNLQTLDLSHNDIEASDCCSLQLKNLSHLQTLNLSHNEPLGLQSQAFKECPQLELLDLAFTRLHINAPQSPFQNLHFLQVLNLTYCFLDTSNQHLLAGLPVLRHLNLKGNHFQDGTITKTNLLQTVGSLEVLILSSCGLLSIDQQAFHSLGKMSHVDLSHNSLTCDSIDSLSHLKGIYLNLAANSINIISPRLLPILSQQSTINLSHNPLDCTCSNIHFLTWYKENLHKLEGSEETTCANPPSLRGVKLSDVKLSCGITAIGIFFLIVFLLLLAILLFFAVKYLLRWKYQHI” was tested. Which “percentage of EdU-negative” value (MCF7; [3]) did it give?
Answer: 27.1 ± 4.8%

Question: And the “percentage of EdU-negative” value (MCF7; protein concentration 0.225 µM)?
Answer: 29.8 ± 3.2%

Question: What about the “percentage of EdU-negative” value (hTERT-HMEC; [3]) of the same sequence?
Answer: 5.21 ± 0.11%

Question: And the “percentage of EdU-negative” value (hTERT-HMEC; protein concentration 0.225 µM)?
Answer: 7.06 ± 0.86%

Question: “MGILSFLPVLATESDWADCKSPQPWGHMLLWTAVLFLAPVAGTPAAPPKAVLKLEPQWINVLQEDSVTLTCRGTHSPESDSIQWFHNGNLIPTHTQPSYRFKANNNDSGEYTCQTGQTSLSDPVHLTVLSEWLVLQTPHLEFQEGETIVLRCHSWKDKPLVKVTFFQNGKSKKFSRSDPNFSIPQANHSHSGDYHCTGNIGYTLYSSKPVTITVQAPSSSPMGIIVAVVTGIAVAAIVAAVVALIYCRKKRISALPGYPECREMGETLPEKPANPTNPDEADKVGAENTITYSLLMHPDALEEPDDQNRI” was tested. Which “percentage of EdU-negative” value (MCF7; [4]) did it give?
Answer: 25 ± 1.1%

Question: And the “percentage of EdU-negative” value (MCF7; [5])?
Answer: 25.9 ± 1.6%

Question: And the “percentage of EdU-negative” value (hTERT-HMEC; [4])?
Answer: 4.58 ± 0.074%

Question: And the “percentage of EdU-negative” value (hTERT-HMEC; [5])?
Answer: 5.06 ± 0.42%

Question: For “MFIKVMFGAGCSVLVNTSCRLVNLTAHLRQKAGLPPDATIALLAEDGNLVSLEEDLKEGASRAQTMGNSLLKERAIYVLVRIIKGEDMASTRYESLLENLDDHYPELAEELRRLSGLSSVGHNWRKRMGTRRGRHEQSPTSRPRKGPD [Q8WYQ4]”, which “percentage of EdU-negative” value (MCF7; [6]) is on record?
Answer: 28 ± 1.6%

Question: What about the “percentage of EdU-negative” value (MCF7; [7]) of the same sequence?
Answer: 25.79 ± 0.035%

Question: And the “percentage of EdU-negative” value (hTERT-HMEC; [6])?
Answer: 5.45 ± 0.84%

Question: And the “percentage of EdU-negative” value (hTERT-HMEC; [7])?
Answer: 5.68 ± 0.37%
